# Patent publication US20040214763A1 (AVENTIS PHARMA S A, published 2004)
# Ends that are not written are not given here.
# T1: p38 protein (product of the human gene JTV1) fused to the transactivating domain of GAL4, from library … (yeast; human, UniProt Q13155 1-320, limits assumed)
# T1 construct: also called plasmid isolated during the screening of the two-hybrid library; fragment corresponding to the p38 protein
# T1 sequence: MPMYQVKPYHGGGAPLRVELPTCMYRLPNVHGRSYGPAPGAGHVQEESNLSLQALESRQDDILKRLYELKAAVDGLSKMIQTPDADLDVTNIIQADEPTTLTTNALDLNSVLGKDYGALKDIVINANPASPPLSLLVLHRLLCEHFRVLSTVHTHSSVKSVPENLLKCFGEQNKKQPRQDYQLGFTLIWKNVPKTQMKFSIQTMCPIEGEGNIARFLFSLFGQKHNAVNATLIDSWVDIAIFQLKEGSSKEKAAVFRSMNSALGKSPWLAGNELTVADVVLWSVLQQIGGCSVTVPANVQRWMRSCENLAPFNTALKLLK
# B1: cytoplasmic domain of the APP protein fused to LexA, expressed from pLex9-cAPP (other, UniProt P05067 723-770, looked up)
# chain: LKKKQYTSIHHGVVEVDAAVTPEERHLSKMQQNGYENPTYKFFEQMQN
# modifications: also: fused to LexA
# notes: domain: cytoplasmic domain; Control bait in the two-hybrid specificity test; also called pLex-cAPP; not shown: bacterial repressor LexA as encoded by vector pLex9 (pBTM116)
# Key:
# [1] = target: p38 protein fused with an N-terminal myc epitope, expressed from pcDNA3-myc-P38 (human) (UniProt Q13155); test: cell-based or functional assay
# [2] = target: T1, p38 protein (product of the human gene …); test: yeast two-hybrid, b-Gal activity assay in strain L40
# Procedure: A sheet of nitrocellulose is pre-placed on the Petri dish containing the separated yeast clones. This sheet is then immersed in liquid nitrogen for 30 seconds in order to rupture the yeasts and thus to release the b-galactosidase activity. After thawing, the sheet of nitrocellulose is placed, colonies facing upwards, in another Petri dish containing a Whatman paper presoaked in 1.5 ml of PBS solution (60 mM Na2HPO4, 40 mM NaH2PO4, 10 mM KCl, 1 mM MgSO4, pH 7) containing 15 μl of X-Gal (5-bromo-4-chloro-3-indolyl-b-D-galactoside) containing 40 mg/ml of N,N-dimethylformamide. The dish is then placed in an incubator at 37° C. The assay is deemed positive when the colonies on the membrane turn blue after 12 hours.
# In order to determine the specificity of interaction between the fragment corresponding to the p38 protein and the central region of parkin, we carried out a two-hybrid test for specific interaction with other, non-relevant proteins. To carry out this test, we transformed the L40 strain with the control plasmids plex9-cAPP or pLex9-HaRasVal12 in place of the plasmid pLex9-Parkin (135-290), encoding, respectively, the cytoplasmic domain of APP or the HaRasVal12 protein, which are fused to the DNA-binding domain of LexA and with the plasmid isolated during the screening of the two-hybrid library. […]
molecule,measurement,setting,value
human parkin stably overexpressed in the SH-SY5Y-VI clone (from UniProt O60260 1-465) (enzyme),proportion of transfected cells exhibiting p38 aggregates,[1],8%
B1,binding result,[2],no binding
